Measured values reported in patent publication US20240318262A1 (TOHOKU UNIVERSITY, published 2024).

Target: T1, human LILRB4 in TIL regions of lung squamous cell carcinoma tissue specimens (human, UniProt Q8NHJ6 24-258)
T1 construct: Native LILRB4 on cells in patient tissue sections; also called immunosuppressive receptor LILRB4
Assay: immunohistochemical staining of lung squamous cell carcinoma tissue specimens
Experimental: Immunohistochemical staining was performed using the anti-human LILRB4 monoclonal antibody #10 obtained in Experimental Example 6, which inhibits binding between fibronectin and human LILRB4, on each of the lung squamous cell carcinoma tissue specimens whose LILRB4 expression was previously determined to be strongly positive (High), medium positive (Medium) or weakly positive (Low), with goat anti-human LILRB4 polyclonal antibodies (available from R & D Systems). The results are illustrated in FIG. 3.

B1: anti-human LILRB4 monoclonal antibody #10 (antibody, V domains shown)
VH: EVMLVESGGGLVQPGGSRKLSCAASGFTFSSFGMHWVRQAPEKGLEWVAYISSGSSTIYYVDTVKGRFTISRDNPKNTLFLQMTSLRSEDTAMYYCARSTGTGAMDYWGQGTSVTVSS
VL: DIQMTQTTSSLSASLGDRVTISCRASQDISNYLNWYQQKPDGTVKLLIYYTLRLYSGVPSRFSGSGSGTDYSLTISNLEQEDIATYFCQQGNTLPWTFGGGTKLEIK
notes: In the reporter assay it was used as hybridoma culture supernatant; also called anti-LILRB4 monoclonal antibody
B1: binds.
